Source: patent US20240124553A1

What was measured:
Assay in all cases: flow cytometry, transfected 293T cells
[1] = biological target: CHIKV E2-E1 envelope glycoproteins (strain S27), E2 mutant P128A (chikungunya virus strain S27) (UniProt Q8JUX5)
[2] = biological target: CHIKV E2-E1 envelope glycoproteins (strain S27), E2 mutant T65A (chikungunya virus strain S27) (UniProt Q8JUX5)
[3] = biological target: CHIKV E2-E1 envelope glycoproteins (strain S27), E2 mutant S51A (chikungunya virus strain S27) (UniProt Q8JUX5)
[4] = biological target: CHIKV E2-E1 envelope glycoproteins (strain S27), E2 mutant V85A (chikungunya virus strain S27) (UniProt Q8JUX5)
[5] = biological target: CHIKV E2-E1 envelope glycoproteins (strain S27), E2 mutant H127A (chikungunya virus strain S27) (UniProt Q8JUX5)
[6] = biological target: CHIKV E2-E1 envelope glycoproteins (strain S27), E2 mutant H99A (chikungunya virus strain S27) (UniProt Q8JUX5)
[7] = biological target: CHIKV E2-E1 envelope glycoproteins (strain S27), E2 mutant D71A (chikungunya virus strain S27) (UniProt Q8JUX5)
[8] = biological target: CHIKV E2-E1 envelope glycoproteins (strain S27), E2 mutant F100A (chikungunya virus strain S27) (UniProt Q8JUX5)
[9] = biological target: CHIKV E2-E1 envelope glycoproteins (strain S27), E2 mutant A78S (chikungunya virus strain S27) (UniProt Q8JUX5)
[10] = biological target: CHIKV E2-E1 envelope glycoproteins (strain S27), E2 mutant T87A (chikungunya virus strain S27) (UniProt Q8JUX5)
[11] = biological target: CHIKV E2-E1 envelope glycoproteins (strain S27), E2 mutant N39A (chikungunya virus strain S27) (UniProt Q8JUX5)
[12] = biological target: CHIKV E2-E1 envelope glycoproteins (strain S27), E2 mutant H73A (chikungunya virus strain S27) (UniProt Q8JUX5)
[13] = biological target: CHIKV E2-E1 envelope glycoproteins (strain S27), E2 mutant T126A (chikungunya virus strain S27) (UniProt Q8JUX5)
[14] = biological target: CHIKV E2-E1 envelope glycoproteins (strain S27), E2 mutant T42A (chikungunya virus strain S27) (UniProt Q8JUX5)
[15] = biological target: CHIKV E2-E1 envelope glycoproteins (strain S27), E2 mutant D43A (chikungunya virus strain S27) (UniProt Q8JUX5)
[16] = biological target: CHIKV E2-E1 envelope glycoproteins (strain S27), E2 mutant E40A (chikungunya virus strain S27) (UniProt Q8JUX5)
[17] = biological target: CHIKV E2-E1 envelope glycoproteins (strain S27), E2 mutant C125A (chikungunya virus strain S27) (UniProt Q8JUX5)
[18] = biological target: CHIKV E2-E1 envelope glycoproteins (strain S27), E2 mutant W64A (chikungunya virus strain S27) (UniProt Q8JUX5)
[19] = biological target: CHIKV E2-E1 envelope glycoproteins (strain S27), E2 mutant H131A (chikungunya virus strain S27) (UniProt Q8JUX5)
[20] = biological target: CHIKV E2-E1 envelope glycoproteins (strain S27), E2 mutant V113A (chikungunya virus strain S27) (UniProt Q8JUX5)
[21] = biological target: CHIKV E2-E1 envelope glycoproteins (strain S27), E2 mutant R36A (chikungunya virus strain S27) (UniProt Q8JUX5)
[22] = biological target: CHIKV E2-E1 envelope glycoproteins (strain S27), E2 mutant T94A (chikungunya virus strain S27) (UniProt Q8JUX5)
[23] = biological target: CHIKV E2-E1 envelope glycoproteins (strain S27), E2 mutant L67A (chikungunya virus strain S27) (UniProt Q8JUX5)
[24] = biological target: CHIKV E2-E1 envelope glycoproteins (strain S27), E2 mutant G57A (chikungunya virus strain S27) (UniProt Q8JUX5)
[25] = biological target: CHIKV E2-E1 envelope glycoproteins (strain S27), E2 mutant F115A (chikungunya virus strain S27) (UniProt Q8JUX5)
[26] = biological target: CHIKV E2-E1 envelope glycoproteins (strain S27), E2 mutant A81S (chikungunya virus strain S27) (UniProt Q8JUX5)
[27] = biological target: CHIKV E2-E1 envelope glycoproteins (strain S27), E2 mutant H123A (chikungunya virus strain S27) (UniProt Q8JUX5)
[28] = biological target: CHIKV E2-E1 envelope glycoproteins (strain S27), E2 mutant G79A (chikungunya virus strain S27) (UniProt Q8JUX5)
[29] = biological target: CHIKV E2-E1 envelope glycoproteins (strain S27), E2 mutant I48A (chikungunya virus strain S27) (UniProt Q8JUX5)
[30] = biological target: CHIKV E2-E1 envelope glycoproteins (strain S27), E2 mutant A33S (chikungunya virus strain S27) (UniProt Q8JUX5)
[31] = biological target: CHIKV E2-E1 envelope glycoproteins (strain S27), E2 mutant I101A (chikungunya virus strain S27) (UniProt Q8JUX5)
[32] = biological target: CHIKV E2-E1 envelope glycoproteins (strain S27), E2 mutant I37A (chikungunya virus strain S27) (UniProt Q8JUX5)
[33] = biological target: CHIKV E2-E1 envelope glycoproteins (strain S27), E2 mutant D117A (chikungunya virus strain S27) (UniProt Q8JUX5)

| Substance | Binding Reactivity (% WT) [1] [% WT] | Binding Reactivity (% WT) [2] [% WT] | Binding Reactivity (% WT) [3] [% WT] | Binding Reactivity (% WT) [4] [% WT] | Binding Reactivity (% WT) [5] [% WT] | Binding Reactivity (% WT) [6] [% WT] | Binding Reactivity (% WT) [7] [% WT] | Binding Reactivity (% WT) [8] [% WT] | Binding Reactivity (% WT) [9] [% WT] | Binding Reactivity (% WT) [10] [% WT] | Binding Reactivity (% WT) [11] [% WT] | Binding Reactivity (% WT) [12] [% WT] | Binding Reactivity (% WT) [13] [% WT] | Binding Reactivity (% WT) [14] [% WT] | Binding Reactivity (% WT) [15] [% WT] | Binding Reactivity (% WT) [16] [% WT] | Binding Reactivity (% WT) [17] [% WT] | Binding Reactivity (% WT) [18] [% WT] | Binding Reactivity (% WT) [19] [% WT] | Binding Reactivity (% WT) [20] [% WT] | other results |
| --- | --- | --- | --- | --- | --- | --- | --- | --- | --- | --- | --- | --- | --- | --- | --- | --- | --- | --- | --- | --- | --- |
| CHIKV mAb IM-CKV065 (antibody) | 80.3 | 98.4 | 85.6 | 88.1 | 81.9 | 27.5 | 102 | 15.1 | 107 | 7.6 | 120 | -0.9 | 67.2 | 104 | 3.7 | 124 | -2.9 | 86.3 | 3.2 | 70.4 | Binding Reactivity (% WT) [21]: 119 % WT; Binding Reactivity (% WT) [22]: 102 % WT; Binding Reactivity (% WT) [23]: 54.1 % WT; Binding Reactivity (% WT) [24]: 108 % WT; Binding Reactivity (% WT) [25]: -0.2 % WT; Binding Reactivity (% WT) [26]: 96.6 % WT; Binding Reactivity (% WT) [27]: 30.8 % WT; Binding Reactivity (% WT) [28]: 98.5 % WT; Binding Reactivity (% WT) [29]: 0.3 % WT; Binding Reactivity (% WT) [30]: 123 % WT; Binding Reactivity (% WT) [31]: 6.3 % WT; Binding Reactivity (% WT) [32]: 12.1 % WT; Binding Reactivity (% WT) [33]: 70.9 % WT |
| CHIKV mAb IM-CKV063 (antibody) | 86 | 70.1 | 89.8 | 74.5 | 96.1 | 63.8 | 98.9 | 33.6 | 99.1 | 18.8 | 120 | 84.2 | 83.4 | 111 | 8.3 | 106 | 0.5 | 69.1 | 16.5 | 79.8 | Binding Reactivity (% WT) [21]: 76.5 % WT; Binding Reactivity (% WT) [22]: 95.5 % WT; Binding Reactivity (% WT) [23]: 62.1 % WT; Binding Reactivity (% WT) [24]: 96.5 % WT; Binding Reactivity (% WT) [25]: 3.6 % WT; Binding Reactivity (% WT) [26]: 93 % WT; Binding Reactivity (% WT) [27]: 44.2 % WT; Binding Reactivity (% WT) [28]: 86.9 % WT; Binding Reactivity (% WT) [29]: 7.9 % WT; Binding Reactivity (% WT) [30]: 99.4 % WT; Binding Reactivity (% WT) [31]: 19.8 % WT; Binding Reactivity (% WT) [32]: 26 % WT; Binding Reactivity (% WT) [33]: 74.2 % WT |
